Measured values taken from the supplement of paper PMC7877785.
± gives the uncertainty stated by the source.

Assay: self-splicing fitness, log relative to wild type (ln ratio); higher = more splicing; Tetrahymena group I intron in knt gene, E. coli kanamycin selection, DiMSum; sequences stand for … in CUCUCU…GGAGGGAAAAGUUAUCAGGCAUGCACCUGGUAGCUAGUCUUUAAACCAAUAGAUUGCAUCGGUUUAAAAGGCAAGACCGUCAAAUUGCGGGAAAGGGGUCAACAGCCGUUCAGUACCAAGUCUCAGGGGAAACUUUGAGAUGGCCUUGCAAAGGGUAUGGUAAUAAGCUGACGGACAUGGUCCUAACCACGCAGCCAAGUCCUAAGUCAACAGAUCUUCUGUUGAUAUGGAUGCAGUUCACAGACUAAAUGUCGGUCGGGGAAGAUGUAUUCUUCUCAUAAGAUAUAGUCGGACCUCUCCUUAAUGGGAGCUAGCGGAUGAAGUGAUGCAACACUGGAGCCGCUGGGAACUAAUUUGUAUGCGAAAGUAUAUUGAUUAGUUUUGGAGUACUCGUGGUCG
Summary of the method: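 A randomised library covering all eight P1ex-region intron nucleotides was built with the intron in the knt kanamycin-resistance gene on pET-22b(+) and held in E. coli BL21(DE3). Cells were grown overnight at 37°C or 30°C on LB agar, with or without 25 μg/mL kanamycin, plus 100 μg/mL carbenicillin, 50 μM IPTG and 0.2% rhamnose, and pooled colonies were amplicon-sequenced on an Illumina HiSeq 2500. DiMSum fitness is the error-weighted combination of wild-type-normalised replicate fold changes, kanamycin versus none.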

Row | Sequence | self-splicing fitness (ln) (30 °C) | self-splicing fitness (ln) (37 °C)
1 | AAAAAGCAAUAUUACGAACC | -1.53 ± 0.12 | -0.312 ± 0.18
2 | AAAAAGCAAUAUUACGACCC | 0.000517 ± 0.17 | 0.616 ± 0.24
3 | AAAAAGCAAUAUUACGAGCA | -0.699 ± 0.076 | -0.722 ± 0.091
4 | AAAAAGCAAUAUUACGAGCC | -2.31 ± 0.2 | -1.28 ± 0.27
5 | AAAAAGCAAUAUUACGAUUA | -0.462 ± 0.067 | 0.23 ± 0.081
6 | AAAAAGCAAUAUUACGCAAA | -1.15 ± 0.13 | -1.43 ± 0.17
7 | AAAAAGCAAUAUUACGCACC | -1.16 ± 0.14 | -0.602 ± 0.16
8 | AAAAAGCAAUAUUACGCAGC | -1.99 ± 0.13 | -2.19 ± 0.19
9 | AAAAAGCAAUAUUACGCCGG | -1.62 ± 0.11 | 0.057 ± 0.12
10 | AAAAAGCAAUAUUACGCCUC | – | -1.18 ± 0.22
11 | AAAAAGCAAUAUUACGCCUU | -0.374 ± 0.071 | 0.151 ± 0.1
12 | AAAAAGCAAUAUUACGCGCA | -0.39 ± 0.082 | 0.127 ± 0.11
13 | AAAAAGCAAUAUUACGGAAA | -2.24 ± 0.18 | -1.58 ± 0.19
14 | AAAAAGCAAUAUUACGGAGC | -3.4 ± 0.2 | -2.1 ± 0.18
15 | AAAAAGCAAUAUUACGGAUC | -0.895 ± 0.068 | -0.418 ± 0.092
16 | AAAAAGCAAUAUUACGGCAA | -0.286 ± 0.092 | 0.328 ± 0.12
17 | AAAAAGCAAUAUUACGGCGC | -0.402 ± 0.093 | 0.559 ± 0.13
18 | AAAAAGCAAUAUUACGGGCC | -1.8 ± 0.28 | -1.17 ± 0.22
19 | AAAAAGCAAUAUUACGGUCA | -0.0389 ± 0.065 | 0.206 ± 0.082
20 | AAAAAGCAAUAUUACGGUGA | -0.824 ± 0.058 | -0.362 ± 0.064
21 | AAAAAGCAAUAUUACGUACC | -0.981 ± 0.13 | -0.0947 ± 0.14
22 | AAAAAGCAAUAUUACGUCGA | -1.05 ± 0.067 | -0.415 ± 0.082
23 | AAAAAGCAAUAUUACGUCGU | -1.5 ± 0.061 | -0.928 ± 0.078
24 | AAAAAGCAAUAUUACGUUAA | -2.66 ± 0.12 | -1.05 ± 0.093
25 | AAACAGCAAUAUUACGACGG | -3.02 ± 0.092 | -1.13 ± 0.087

Row | Sequence | self-splicing fitness (ln) (30 °C) | self-splicing fitness (ln) (37 °C)
26 | AAACAGCAAUAUUACGAGCA | -1.76 ± 0.091 | -1.09 ± 0.082
27 | AAACAGCAAUAUUACGAGCG | -1.93 ± 0.079 | -0.668 ± 0.095
28 | AAACAGCAAUAUUACGCAGG | -2.41 ± 0.15 | -2.33 ± 0.15
29 | AAACAGCAAUAUUACGCAUG | -2.12 ± 0.077 | -1.58 ± 0.089
30 | AAACAGCAAUAUUACGCCAG | -4.93 ± 0.39 | -2.11 ± 0.22
31 | AAACAGCAAUAUUACGCCCA | -1.29 ± 0.15 | -0.816 ± 0.15
32 | AAACAGCAAUAUUACGCCCU | -0.534 ± 0.11 | 0.201 ± 0.16
33 | AAACAGCAAUAUUACGCGCG | -1.2 ± 0.067 | -0.673 ± 0.081
34 | AAACAGCAAUAUUACGCUCC | -1.21 ± 0.14 | -0.165 ± 0.13
35 | AAACAGCAAUAUUACGCUCG | -1.11 ± 0.083 | -0.7 ± 0.11
36 | AAACAGCAAUAUUACGCUGC | -4.51 ± 0.19 | -1.81 ± 0.13
37 | AAACAGCAAUAUUACGCUUG | -1.9 ± 0.096 | -0.605 ± 0.098
38 | AAACAGCAAUAUUACGCUUU | -3.11 ± 0.095 | -1.33 ± 0.083
39 | AAACAGCAAUAUUACGGAGA | -2.87 ± 0.15 | -2.57 ± 0.15
40 | AAACAGCAAUAUUACGGUAU | -2.53 ± 0.074 | -1.58 ± 0.088
41 | AAACAGCAAUAUUACGGUCG | -1.07 ± 0.059 | -0.526 ± 0.082
42 | AAACAGCAAUAUUACGGUCU | -0.15 ± 0.059 | -0.161 ± 0.064
43 | AAACAGCAAUAUUACGUAAA | -2.37 ± 0.068 | -1.13 ± 0.074
44 | AAACAGCAAUAUUACGUAAC | -4.39 ± 0.24 | -1.97 ± 0.14
45 | AAACAGCAAUAUUACGUAUA | -3 ± 0.14 | -1.27 ± 0.12
46 | AAACAGCAAUAUUACGUAUU | -2.17 ± 0.089 | -1.53 ± 0.097
47 | AAACAGCAAUAUUACGUGAA | -1.92 ± 0.073 | -0.646 ± 0.072
48 | AAAGAGCAAUAUUACGAAGG | -3.52 ± 0.33 | -2.64 ± 0.41
49 | AAAGAGCAAUAUUACGACCC | -2.42 ± 0.45 | –
50 | AAAGAGCAAUAUUACGACGU | -1.63 ± 0.084 | -0.555 ± 0.089

Row | Sequence | self-splicing fitness (ln) (30 °C) | self-splicing fitness (ln) (37 °C)
51 | AAAGAGCAAUAUUACGAGUC | -3.41 ± 0.38 | -2.63 ± 0.45
52 | AAAGAGCAAUAUUACGCACG | -2.69 ± 0.23 | -2.22 ± 0.26
53 | AAAGAGCAAUAUUACGCCAA | -1.26 ± 0.21 | –
54 | AAAGAGCAAUAUUACGCCCA | -2.88 ± 0.32 | -2.02 ± 0.28
55 | AAAGAGCAAUAUUACGCUUA | -2.74 ± 0.31 | -3.02 ± 0.23
56 | AAAGAGCAAUAUUACGGACU | -1.36 ± 0.12 | -1.59 ± 0.16
57 | AAAGAGCAAUAUUACGGCAC | -2.72 ± 0.19 | -2.01 ± 0.21
58 | AAAGAGCAAUAUUACGGGAA | -2.67 ± 0.32 | -2.16 ± 0.28
59 | AAAGAGCAAUAUUACGGGGU | -2.63 ± 0.21 | -2.18 ± 0.24
60 | AAAGAGCAAUAUUACGGUAC | -4.14 ± 0.24 | -2.57 ± 0.2
61 | AAAGAGCAAUAUUACGGUUA | -2.49 ± 0.21 | -2.06 ± 0.18
62 | AAAGAGCAAUAUUACGGUUC | – | -2.82 ± 0.36
63 | AAAGAGCAAUAUUACGUACU | -1.21 ± 0.14 | -0.952 ± 0.15
64 | AAAGAGCAAUAUUACGUCAU | -2.38 ± 0.37 | -2.45 ± 0.35
65 | AAAGAGCAAUAUUACGUCCC | -2.1 ± 0.28 | -1.07 ± 0.35
66 | AAAGAGCAAUAUUACGUGAA | -3.27 ± 0.14 | -2.44 ± 0.16
67 | AAAGAGCAAUAUUACGUGGC | -2.86 ± 0.23 | –
68 | AAAGAGCAAUAUUACGUUCC | -3.94 ± 0.31 | -2.49 ± 0.29
69 | AAAUAGCAAUAUUACGAAAG | -3.48 ± 0.18 | -1.6 ± 0.14
70 | AAAUAGCAAUAUUACGAACC | -1.91 ± 0.33 | 1.21 ± 0.28
71 | AAAUAGCAAUAUUACGAACU | 1.11 ± 0.17 | -0.182 ± 0.16
72 | AAAUAGCAAUAUUACGAAGC | -3.18 ± 0.47 | –
73 | AAAUAGCAAUAUUACGAUCU | -0.0304 ± 0.11 | 0.867 ± 0.13
74 | AAAUAGCAAUAUUACGAUGC | -2.26 ± 0.31 | -1.65 ± 0.34
75 | AAAUAGCAAUAUUACGCACC | -1.34 ± 0.21 | -0.223 ± 0.23

Row | Sequence | self-splicing fitness (ln) (30 °C) | self-splicing fitness (ln) (37 °C)
76 | AAAUAGCAAUAUUACGCACU | 0.478 ± 0.12 | -0.381 ± 0.13
77 | AAAUAGCAAUAUUACGCCAA | -2.54 ± 0.18 | -1.86 ± 0.13
78 | AAAUAGCAAUAUUACGCCCA | -0.102 ± 0.18 | -0.392 ± 0.17
79 | AAAUAGCAAUAUUACGCGGU | -2.71 ± 0.18 | -1.93 ± 0.2
80 | AAAUAGCAAUAUUACGCUUA | -1.47 ± 0.11 | -0.735 ± 0.13
81 | AAAUAGCAAUAUUACGGAAC | -4.71 ± 0.45 | -1.74 ± 0.36
82 | AAAUAGCAAUAUUACGGACC | -1.57 ± 0.25 | -1.26 ± 0.31
83 | AAAUAGCAAUAUUACGGAUA | -2.19 ± 0.2 | -1.1 ± 0.16
84 | AAAUAGCAAUAUUACGGGCG | -1.29 ± 0.08 | -0.403 ± 0.096
85 | AAAUAGCAAUAUUACGGUUU | -1.3 ± 0.059 | -0.657 ± 0.076
86 | AAAUAGCAAUAUUACGUCAC | -4.4 ± 0.42 | -2.53 ± 0.28
87 | AAAUAGCAAUAUUACGUCGC | -2.54 ± 0.15 | -2.54 ± 0.28
88 | AAAUAGCAAUAUUACGUGCG | -0.841 ± 0.13 | -0.149 ± 0.15
89 | AAAUAGCAAUAUUACGUGUG | -2.05 ± 0.09 | -1.55 ± 0.086
90 | AAAUAGCAAUAUUACGUUAU | -3.39 ± 0.18 | -2 ± 0.15
91 | AACAAGCAAUAUUACGAACU | -0.328 ± 0.052 | 0.146 ± 0.084
92 | AACAAGCAAUAUUACGAAUG | -3 ± 0.14 | -1.97 ± 0.12
93 | AACAAGCAAUAUUACGCGCA | -0.604 ± 0.066 | 0.104 ± 0.094
94 | AACAAGCAAUAUUACGCGGA | -2.07 ± 0.099 | -0.961 ± 0.078
95 | AACAAGCAAUAUUACGCUCG | -0.882 ± 0.11 | -0.282 ± 0.11
96 | AACAAGCAAUAUUACGCUCU | -0.638 ± 0.075 | 0.0475 ± 0.089
97 | AACAAGCAAUAUUACGCUGC | -3.38 ± 0.3 | -2.45 ± 0.28
